± gives the standard deviation of the averaged measurements.
test system: ATP; experiment: switch fluorescence ratio, 500 uM ATP over buffer (Cy3 cluster intensity, sum of 5 cycles each) (fold (ratio)); higher = stronger signal-on switching upon ATP binding; sequences stand for … in TCGTCGGCAGCGTCAGATGTGTATAAGAGACAGTTTTTTTTTTTTTTTTTTTTTTTTT…TC; details: aptamer strand: ATP DNA aptamer (quencher-CACCTGGGGGAGTATTGCGGAGGAAGG + anchor), 100 nM annealed; ATP concentration: 500 uM
Summary of the method: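 Cy3-labelled switching-strand clusters on a modified Illumina MiSeq flow-cell were annealed to 100 nM quencher-labelled ATP aptamer and imaged first in selection buffer, then after 15 min with 500 uM ATP at 22 °C. NaOH stripping and re-annealing separated each of five buffer/ATP cycles, and clusters outside 100-1000 RFU were excluded. The fluorescence ratio sums target-cycle Cy3 intensity over buffer-cycle Cy3 intensity per cluster and averages it per switch-domain sequence.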
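Further: ATP exposure 15 min at 22 °C before imaging.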

| Sequence | switch fluorescence ratio |
| --- | --- |
| CCAAAGCCTC | 2.69 ± 0.21 |
| GCCTGGTTTT | 0.979 ± 0.024 |
| TGAAAAAAT | 0.977 ± 0.051 |
| CTCAGAGAAG | 1.02 ± 0.058 |
| GGGGGGTAGA | 1.02 ± 0.043 |
| TGGTTGGTTG | 0.988 ± 0.02 |
| TGGGTGAAGC | 0.991 ± 0.059 |
| GCTGTTGCTG | 1 ± 0.035 |
| GGTGCGCGGA | 1.034 ± 0.0064 |
| CGATAACGTC | 0.992 ± 0.011 |
| TGGTTAAAAA | 0.98 ± 0.049 |
| TGCTCACGGT | 1.02 ± 0.041 |
| GGGGTTTAAT | 1 ± 0.034 |
| TAATTTAAGA | 1.01 ± 0.013 |
| GTGAGATCGG | 0.991 ± 0.029 |
| GAGATTTGAC | 1.01 ± 0.025 |
| ATGGTCAGGG | 0.987 ± 0.026 |
| GCGCTTTTTT | 0.9898 ± 0.00075 |
| TTATTTTGTA | 1.03 ± 0.013 |
| TGAAGTTTTA | 0.989 ± 0.025 |
| GATATGTTTT | 1 ± 0.035 |
| TGTCATGTAT | 0.987 ± 0.021 |
| TATTGGAGGT | 0.981 ± 0.021 |

| Sequence | switch fluorescence ratio |
| --- | --- |
| TCCGCACAGA | 3.41 ± 0.89 |
| GCCCATAGAC | 1.12 ± 0.041 |
| AGGCACGCGC | 1.01 ± 0.013 |
| TTTAAGTCGT | 0.974 ± 0.025 |
| TATAGGCCCC | 0.983 ± 0.015 |
| CAGTGTTAGG | 1 ± 0.034 |
| CCTGGTGAGG | 1.04 ± 0.072 |
| ACTTTGGAGG | 1.02 ± 0.034 |
| CGTTTGGGGA | 0.99 ± 0.015 |
| ATGCGATTTG | 1 ± 0.057 |
| TGATTATTT | 0.978 ± 0.032 |
| TTCCAGGGCA | 1.02 ± 0.022 |
| AAATGTTCTG | 0.948 ± 0.021 |
| TTTATAACGG | 0.988 ± 0.038 |
| TGGTGTTTGG | 0.979 ± 0.032 |
| CAGAGTCGGG | 0.9963 ± 0.009 |
| AAGTTTTCAG | 0.97 ± 0.021 |
| TTTCTGCTTT | 1.04 ± 0.057 |
| GTTAGGGGAG | 1 ± 0.042 |
| TAATGCAGGA | 1.02 ± 0.015 |
| TTGTGGGGTC | 1 ± 0.036 |
| GCGAGGCCCG | 0.9944 ± 0.0017 |
| CATTAGGCAA | 1.696 ± 0.0032 |

| Sequence | switch fluorescence ratio |
| --- | --- |
| GAAGGAAGAG | 1.03 ± 0.025 |
| ATTGAGGAAT | 0.965 ± 0.064 |
| AAACCTCTGG | 0.965 ± 0.02 |
| TGATGGAGTA | 0.969 ± 0.016 |
| AAAAGTTTGG | 1 ± 0.015 |
| ACACCTCCAA | 1.04 ± 0.027 |
| GAATTCAGGG | 0.99 ± 0.014 |
| TATGGGTGCT | 1.06 ± 0.046 |
| TCGTTGGCAA | 2.3 ± 0.23 |
| TAGTTAGTGT | 0.981 ± 0.013 |
| TTTACTGGGG | 1.01 ± 0.023 |
| TTTATCATAA | 0.958 ± 0.017 |
| AGCGTTTATA | 1.018 ± 0.0013 |
| GTCTTGGCTC | 1.02 ± 0.031 |
| TAGATTGGGT | 0.976 ± 0.033 |
| GATCTAGGAG | 1.02 ± 0.017 |
| ATATTGGCGC | 1.01 ± 0.019 |
| TGTGATGTGG | 1.04 ± 0.083 |
| GTGCGATTGG | 1.033 ± 0.0092 |
| TTTTCGCCAC | 2.35 ± 1.3 |
| AGTTATCCAT | 1.001 ± 0.0083 |
| ATTAGTACTG | 1.02 ± 0.02 |
| ACTTGACTTG | 1.03 ± 0.018 |

| Sequence | switch fluorescence ratio |
| --- | --- |
| TGGCGAAGTA | 1.01 ± 0.013 |
| TCGACTATTA | 1.05 ± 0.019 |
| TCTAGCCGCG | 1.016 ± 0.0044 |
| GGGAAAACGC | 1.02 ± 0.015 |
| AAAGTGGTCG | 1.1 ± 0.039 |
| CCCAGTTTTT | 1.006 ± 0.0054 |
| CGTTGACCTT | 1.07 ± 0.029 |
| ATAGTGGTGA | 1.03 ± 0.048 |
| GGATGCCTTT | 0.977 ± 0.026 |
| CTCGGGCACG | 0.989 ± 0.046 |
| TCAATAGAAT | 1.06 ± 0.14 |
| GAGATTAGGT | 0.977 ± 0.015 |
| ATTGTCGTGA | 0.991 ± 0.037 |
| TTTTCACGGT | 1.01 ± 0.021 |
| TTGAGGTTA | 1.07 ± 0.069 |
| GATGGGGATT | 1.04 ± 0.069 |
| AAAAGAAAGC | 0.956 ± 0.03 |
| GGGGGTGGCT | 1.027 ± 0.0069 |
| TGTGAAACAA | 1.01 ± 0.03 |
| GGGATGAATG | 0.9773 ± 0.0079 |
| CAGTTGGACA | 0.967 ± 0.031 |
| CGACGAGGCT | 1.21 ± 0.024 |
| TATAAGGCTA | 1.02 ± 0.028 |

| Sequence | switch fluorescence ratio |
| --- | --- |
| GTTGGGGAAG | 0.972 ± 0.034 |
| GGCGGTGGCG | 0.994 ± 0.1 |
| TTTAGGCGGC | 1.03 ± 0.023 |
| AGCTTGAAG | 0.999 ± 0.019 |
| GTTCACCAAT | 1 ± 0.07 |
| AGTTTGATG | 0.986 ± 0.041 |
| TAACGTGTTT | 1 ± 0.017 |
| CGGTCGGAGG | 0.974 ± 0.023 |
| GGCTACGGAA | 2.32 ± 0.022 |
| GCATGATGGA | 0.975 ± 0.022 |
| TTATCAGTGT | 0.972 ± 0.063 |
| CTTCATCTTT | 0.996 ± 0.018 |
| GAGAATTGGG | 1.02 ± 0.061 |
| GGACGCTATC | 3.89 ± 0.42 |
| TTTGATATAT | 0.972 ± 0.012 |
| TATACGATTG | 0.985 ± 0.013 |
| GAGTAGTGCT | 1.03 ± 0.018 |
| TGTTTGAATG | 0.9585 ± 0.0029 |
| TAAATCGGCG | 0.989 ± 0.023 |
| ATAGGGGTTT | 1.013 ± 0.0055 |
| AGGGAGCTCC | 1.01 ± 0.025 |
| CTAATCAAAT | 0.973 ± 0.019 |
| AGGGAAATCT | 1.034 ± 0.01 |

| Sequence | switch fluorescence ratio |
| --- | --- |
| AGCTTTGGGG | 1.02 ± 0.018 |
| AATATAGTTG | 1.02 ± 0.018 |
| ATCTTGGACG | 1.05 ± 0.027 |
| ATTTTTTCAA | 0.981 ± 0.015 |
| TATGGTGCTT | 1.01 ± 0.032 |
| TTTAAAAGTC | 1.07 ± 0.086 |
| ATCAGAACAA | 1.01 ± 0.0069 |
| GTTTTTTTAA | 1 ± 0.034 |
| TGCAATTTCG | 1.07 ± 0.065 |
| CAGATGCAGA | 1.065 ± 0.0071 |
| GCAGGTGGGG | 1.1 ± 0.022 |
| TTTCGCGTGG | 0.971 ± 0.028 |
| ACGGGCAACG | 0.9743 ± 0.0065 |
| GATGGGTTCT | 0.9926 ± 0.0044 |
| GCAGACAGCT | 1.037 ± 0.0085 |
| ATGGATAT | 0.98 ± 0.031 |
| TTAATGCCGT | 1.05 ± 0.076 |
| AAGCGGTAGG | 1.03 ± 0.015 |
| TTTTCGTGGC | 0.989 ± 0.1 |
| TTTAAGAGCT | 0.997 ± 0.015 |
| CGAGAGCCAC | 1.13 ± 0.047 |
| TTAGTTTTTT | 1.01 ± 0.019 |
| ACGTGACCAT | 1.33 ± 0.047 |

| Sequence | switch fluorescence ratio |
| --- | --- |
| CAATATTTG | 0.994 ± 0.015 |
| GGTGAAGCTG | 1.05 ± 0.14 |
| CTCGCGTTAA | 1.11 ± 0.13 |
| ACGGGCATCG | 1.02 ± 0.032 |
| TAATAGTTCC | 1.106 ± 0.0025 |
| CCAGTGTTCT | 1.01 ± 0.024 |
| TTTTAGACGT | 0.991 ± 0.022 |
| ACCAGGGGGG | 1.07 ± 0.058 |
| ACGGGGCGGC | 1.11 ± 0.028 |
| CCGGAGGGGT | 1.38 ± 0.018 |
| CATATACGAG | 1.11 ± 0.015 |
| ATTACTGAGT | 1.03 ± 0.015 |
| CGGGGCGAAG | 0.984 ± 0.038 |
| GTAAAAGAAG | 0.964 ± 0.02 |
| AACAGGCGGG | 0.993 ± 0.027 |
| GAGTCGAATT | 0.9738 ± 0.0058 |
| CGAACTGTGG | 0.9673 ± 0.009 |
| TTAGTACATG | 0.976 ± 0.019 |
| CCAGAAAAGG | 1.31 ± 0.47 |

— the supplement of paper PMC10126150
